What was measured:
avidin = molecular target: T1, avidin (UniProt P02701 25-152); test: phage ELISA on avidin coat without biotin-DM1
T1 construct: Negative-control coat; also called avidin alone

[1] = molecular target: T2, ado-trastuzumab emtansine; test: SPR, kinetic assessment, immobilized T-DM1
T2 construct: Antibody-drug conjugate immobilised on a CM5 SPR chip; also called TDM1; T-DM1

[2] = molecular target: T2, ado-trastuzumab emtansine; test: SPR, equilibrium binding, TDM1 on a CM5 chip, 3A2 injected at 1.25-400 nM
Description: (§1) Preliminary screening of DM1/4 binders were performed using a neutravidin SPR chip with DM1-Biotin on the left channel. Phagemid purified sdAbs were flowed over the SPR chip for 2 minutes at a flow rate of 25 ul/min. After binding, sdAb was dissociated for 20 minutes. Observed sensorgrams were fit to an individual dissociation rate constant for each construct. Equilibrium and kinetic binding of 3A2 was assessed using a CM5 SPR chip with TDM1 immobilized on the left channel. […] Rate constants for 3A2-TDM1 association and dissociation were obtained through fitting of the observed sensorgrams for the 1.25, 2.5, 5, 7.5 and 10 nM injections to a 1:1 Langmuir binding model.
(§2) Anti-DM1/DM4 sdAb DF3A2 clone. […] DNA encoding for 3A2 was synthesized and expressed in the E. coli strain SHuffle and purified using nickel chromatography. Purified 3A2 was used to assess TDM1 binding using SPR. […] To obtain a secondary measure of binding kinetics sdAb injected at concentrations between 1.25-10 nM were fit to a 1:1 Langmuir binding model to obtain association and dissociation rate constants.

[3] = molecular target: T2, ado-trastuzumab emtansine; test: SPR, kinetic fit (1:1 Langmuir), TDM1 on a CM5 chip, 3A2 injected at 1.25-10 nM
Description: as §1, §2

cetuximab = molecular target: T3, cetuximab; test: ELISA, purified CG4 on unconjugated cetuximab coat, anti-His HRP detection
T3 construct: not shown: the constant regions
Description: (§3) Nunc Maxisorp 96-well plates were coated with 4 μg/ml Cetuximab or Cetuximab-calicheamicin, or 5 μg/ml Avidin. Plates were washed three times with PBST and three times with dH2O, and blocked with MPBS for 2 h at RT. For the Avidin coated plates, plates were washed three times with PBST and incubated with 1 μM Biotin-Calicheamcin. […] Plates were then washed three times with PBST, where bound sdAb was detected using an anti-His tag HRP-conjugated Ab diluted 1:1000 in MPBST. Following incubated and five washed with PBST, 100 μL of 1-Step Turbo TMB-ELISA solution was added to each well and incubated for 30 minutes. The reaction was quenched by adding 100 μL of Stop solution to each well and absorbance was measured at 450 nm. Alternatively, wells can also be incubated with 1:1000 diluted anti-His tag AP-conjugated Ab, instead of HRP conjugated Ab.

[4] = molecular target: T4, Cetuximab-calicheamicin conjugate; test: competitive ELISA on cetuximab-calicheamicin coated plates, 64 µM CG4 with or without 10 µM free calicheamicin
T4 construct: also called Cetuximab-calicheamcin conjugate; ADC (coated ELISA)
Description: as §3

[5] = molecular target: T4, Cetuximab-calicheamicin conjugate; test: competitive ELISA on cetuximab-calicheamicin coated plates, corrected for background
Description: as §3

exatecan conjugated BSA = molecular target: T5, exatecan conjugated BSA (bovine, UniProt P02769 25-607, exatecan conjugated to BSA; chemistry and sites not stated); test: SPR, kinetic fit, BSA-conjugated exatecan on the chip
T5 construct: Hapten-carrier conjugate immobilised on the SPR chip; also called BSA conjugated Exatecan
T5 sequence (P02769 25-607 limits assumed): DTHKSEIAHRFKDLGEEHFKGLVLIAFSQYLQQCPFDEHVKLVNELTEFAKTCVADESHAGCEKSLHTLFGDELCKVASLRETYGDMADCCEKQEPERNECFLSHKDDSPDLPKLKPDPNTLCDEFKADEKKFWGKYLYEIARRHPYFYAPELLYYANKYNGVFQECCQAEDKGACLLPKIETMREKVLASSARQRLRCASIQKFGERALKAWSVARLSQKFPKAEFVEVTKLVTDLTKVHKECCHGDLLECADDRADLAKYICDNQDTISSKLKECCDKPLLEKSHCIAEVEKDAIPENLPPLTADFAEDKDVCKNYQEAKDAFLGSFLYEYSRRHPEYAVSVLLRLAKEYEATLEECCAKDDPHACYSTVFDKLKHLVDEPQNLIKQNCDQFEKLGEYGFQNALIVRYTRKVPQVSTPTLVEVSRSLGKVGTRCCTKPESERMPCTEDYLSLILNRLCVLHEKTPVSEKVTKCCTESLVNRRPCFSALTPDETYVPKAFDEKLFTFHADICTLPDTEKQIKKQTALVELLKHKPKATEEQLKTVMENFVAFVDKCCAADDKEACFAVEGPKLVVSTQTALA

T1 sequence (P02701 25-152 limits assumed): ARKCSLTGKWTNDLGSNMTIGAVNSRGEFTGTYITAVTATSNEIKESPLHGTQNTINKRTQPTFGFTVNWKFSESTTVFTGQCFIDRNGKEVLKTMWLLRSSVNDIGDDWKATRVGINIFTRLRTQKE

B1: T3B4 (VHH)
VHH: QVQLQESGGGLVQAGDSLRLSCTASGRTFSRYTMGWFRQAPGKEREFVAAISTGGLRQYFGDSVRGRCTISRDNAKNTVYLQMDSLKPEDTAVYYCAATGNEYHWGRGTQVTVSS
notes: tested as phage media; also called DT3B4
- binding result (avidin): no binding

B2: T3H3 (VHH)
VHH: EVQLVESGGGLVQPGGSLRLSCAASGRTFSHDHMGWFRQAPGKEREFVAAISWTSSTYYGDSVKGRFTISRSNAKNTVYLQMNSLKPEDTAIYYCSWGVGYWGQGTQVTVSS
notes: tested as phage media; also called DT3H3
- binding result (avidin): no binding

B3: T3B5 (VHH)
VHH: QVQLVQSGGGLVQPGGSLRLSCTASGRTFSRYTMGWFRQAPGKEREFVAAISTGGLRQYFGDSVRGRCTISRDNAKSTVYLQMDSLKPEDTAVYYCAANWGTSYYWGQGTQVTVSS
notes: tested as phage media; also called DT3B5
- binding result (avidin): no binding

B4: Anti-DM1/DM4 sdAb DF4B12 clone (VHH)
VHH: EVQLVESGGGLVQPGGSLRLSCAASGSIFGISYMGWYRQAPGKQREPVALITSGGDTAYGDSVKGRFTISRDNAKNTVYLQMNSLTPEDTSTFYCAAGFYRSDSPNRYDYWGQGTQVTVSS
notes: Purified sdAb; tag not described
- binding result (avidin): no binding
- Kd [1]: 4.33 nM

B5: Anti-DM1/DM4 sdAb DF3A4 clone (VHH)
VHH: QVQLQESGGGLVQPGGSLRLSCAASGSIFGISYMGWYRQAPGKQREPVALITSGGSTYYADSVKGRVTISRDNAKKTVYLQMNSLRPEDTSTYYCAAGFYRSDSPNRYDYWGQGTQVTVSS
notes: as for B4
- binding result (avidin): no binding
- Kd [1]: 5.59 nM

B6: Anti-DM1/DM4 sdAb DF3A2 clone (VHH)
VHH: QVQLQESGGGLVQPGGSLRLSCAASGGIFGISYMGWYRQAPGKQREPVALITSGGDTAYGDSVKGRFAISRDNAKNTVYLQMNSLKPDDTSAYYCAAGFYRSDSPNRYDYWGQGTQVTVSS
notes: also called sdAb 3A2
- Kd [2]: 25 nM
- binding result (avidin): no binding
- Kd [3]: 12.3 nM

B7: T3B3 (VHH)
VHH: EVQLVESGGGLVQAGGSLRLSCALSGGTLRSYTMGWIRQAPGKEREFVAGNRWSGGRTYYADSVKGRFTISGDNAENTVYLQMNSLKPEDTAVYYCTADVTEYGEDSSAYWGRGTQVTVSS
notes: tested as phage media; also called DT3B3
- binding result (avidin): no binding

B8: Anti-Calicheamicin sdAb CG4 clone (VHH)
VHH: QVQLQESGGGLVQAGGSLRLSCAASGRTISGYAMGWFRQAPGKERDLVAAISRSGTSTYYADSVKGRFTISRDNAKNTVYLQMNSLKPEDTAVYYCNAPGGIWGQGTQVTVSS
- binding result (cetuximab): binds
- fold decrease of ELISA signal on addition of 10 µM free calicheamicin [4]: 2.5 fold
- fold decrease of ELISA signal on addition of 10 µM free calicheamicin, corrected for background [5]: ~3.3 fold

B9: Anti-Exatecan sdAb TF7 clone (VHH)
VHH: QVQLQESGGGLAQPGGSLRVSCATSGFTFSSNYYISWVRQAPGRGLEWVSAINTGDGSTYYAHSVKGRFTISRDNAKNTLYLQMNSLKPEDTALYYCARSSLEGRIEKPYDYWGQGTQVTVSS
notes: Llama single domain antibody; also called anti-camptothecin sdAb (TF7)
- Kd (exatecan conjugated BSA): 10 nM
